In US20240307885:

Molecular target: Insulin from bovine pancreas, P01317
Sequence (P01317 85-105, chain 1 of 2): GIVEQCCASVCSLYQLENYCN
Sequence (P01317 25-54, chain 2 of 2): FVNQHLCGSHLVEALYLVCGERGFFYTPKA

B1: Protein disulfide isomerase from Thermoascus crustaceus (SEQ ID NO: 1) (protein)
chain: ADAESDVRSLKKDTFDDFIKEHDLVLAEFFAPWCGHCQALAPEYEAAASELKEKNIPLAKVDCTEEADLCKEHGVEGYPTLKVFRGLDSVKPYPGARKSAAIVSYMVKQSLPAVSTVTKENLEEFKTMDKVVIIGYIAPDDKTSNETFTAFADSKRDDYLFAATNDAALAKAEGVKQPSIVLYKDFDEKKDVFDGKFDQETMLSWVKTASTPLVGEIGPETYAGYMSAGIPLAFIFAETPEERQKLAADFKPIAEKHRGAINIVTIDAKAFGAYAGNLNLDPQKFPCFAIHDTVKNAKFPYDQSKEVNAKDIGQFVQEVLDGKVEPSIKSEPIPETQEGSVTVVVAHSYRELVIDNDKDVLLEFYAPWCGHCKALAPKYEELGRLYAENPDLASKVTVAKIDATANDVPDEIQGFPTIKLFPAGAKDSPVDYAGSRTVEDLANFIKENGKHKVDALSAATAKPEQGGDVTSTPSISSETTAETAAPTTDGSEHDEL
Insulin reduction assay with DTT, MALDI MS (worded result): in the presence of the PDI, a significant amount of the cystines are reduced resulting in separation of the insulin into the A peptide and B peptide | Insulin reduction assay with sulfite, MALDI MS (worded result): in the presence of the PDI, a significant amount of the cystines are reduced resulting in separation of the insulin into the A peptide and B peptide | Ratio (A chain): mass peak area of A peptide chain to intact insulin, MALDI MS; 2.5 µg/mL PDI, 0 mM DTT: 0.006 | Ratio (A chain): mass peak area of A peptide chain to intact insulin, MALDI MS; 2.5 µg/mL PDI, 0 mM sulfite: 0.009 | Ratio (A chain): mass peak area of A peptide chain to intact insulin, MALDI MS; 2.5 µg/mL PDI, 2 mM DTT: 0.035 | Ratio (A chain): mass peak area of A peptide chain to intact insulin, MALDI MS; 2.5 µg/mL PDI, 2.9 mM sulfite: 0.027 | Ratio (A chain): mass peak area of A peptide chain to intact insulin, MALDI MS; 5 µg/mL PDI, 0 mM DTT: 0.005 | Ratio (A chain): mass peak area of A peptide chain to intact insulin, MALDI MS; 5 µg/mL PDI, 0 mM sulfite: 0.007 | Ratio (A chain): mass peak area of A peptide chain to intact insulin, MALDI MS; 5 µg/mL PDI, 2 mM DTT: 0.07 | Ratio (A chain): mass peak area of A peptide chain to intact insulin, MALDI MS; 5 µg/mL PDI, 2.9 mM sulfite: 0.05 | Ratio (A chain): mass peak area of A peptide chain to intact insulin, MALDI MS; 10 µg/mL PDI, 0 mM DTT: 0.003 | Ratio (A chain): mass peak area of A peptide chain to intact insulin, MALDI MS; 10 µg/mL PDI, 0 mM sulfite: 0.008 | Ratio (A chain): mass peak area of A peptide chain to intact insulin, MALDI MS; 10 µg/mL PDI, 2 mM DTT: 0.172 | Ratio (A chain): mass peak area of A peptide chain to intact insulin, MALDI MS; 10 µg/mL PDI, 2.9 mM sulfite: 0.104 | Ratio (B chain): mass peak area of B peptide chain to intact insulin, MALDI MS; 2.5 µg/mL PDI, 0 mM DTT: 0.01 | Ratio (B chain): mass peak area of B peptide chain to intact insulin, MALDI MS; 2.5 µg/mL PDI, 0 mM sulfite: 0.019 | Ratio (B chain): mass peak area of B peptide chain to intact insulin, MALDI MS; 2.5 µg/mL PDI, 2 mM DTT: 0.109 | Ratio (B chain): mass peak area of B peptide chain to intact insulin, MALDI MS; 2.5 µg/mL PDI, 2.9 mM sulfite: 0.055 | Ratio (B chain): mass peak area of B peptide chain to intact insulin, MALDI MS; 5 µg/mL PDI, 0 mM DTT: 0.009 | Ratio (B chain): mass peak area of B peptide chain to intact insulin, MALDI MS; 5 µg/mL PDI, 0 mM sulfite: 0.018 | Ratio (B chain): mass peak area of B peptide chain to intact insulin, MALDI MS; 5 µg/mL PDI, 2 mM DTT: 0.185 | Ratio (B chain): mass peak area of B peptide chain to intact insulin, MALDI MS; 5 µg/mL PDI, 2.9 mM sulfite: 0.083 | Ratio (B chain): mass peak area of B peptide chain to intact insulin, MALDI MS; 10 µg/mL PDI, 0 mM DTT: 0.007 | Ratio (B chain): mass peak area of B peptide chain to intact insulin, MALDI MS; 10 µg/mL PDI, 0 mM sulfite: 0.017 | Ratio (B chain): mass peak area of B peptide chain to intact insulin, MALDI MS; 10 µg/mL PDI, 2 mM DTT: 0.335 | Ratio (B chain): mass peak area of B peptide chain to intact insulin, MALDI MS; 10 µg/mL PDI, 2.9 mM sulfite: 0.17
